According to PMC12416549 (2024):
Substitutions are numbered along the chain they refer to. In names and notes the source's numbering stands.

T1: TNFR1 (Homo sapiens, UniProt P19438)
T1 chain: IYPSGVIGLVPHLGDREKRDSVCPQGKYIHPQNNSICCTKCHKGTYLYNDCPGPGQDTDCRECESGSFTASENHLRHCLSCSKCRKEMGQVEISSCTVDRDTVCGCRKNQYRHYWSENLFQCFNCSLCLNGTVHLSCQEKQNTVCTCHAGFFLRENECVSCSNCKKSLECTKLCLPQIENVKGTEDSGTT

B1: E25T (designed binder)
chain: MTLQELLREEALRRAEAEAFRYALTLLAEKFPEQKEYLLDLAEEIESQIRSLSGVDVEDVRKFLDKEWAWVKELLAEHPAELAEVEAARAARLAELRAEVEAKVAA
B2: P32T (designed binder)
chain: B1 chain with T25E, P32T
B3: L96C (designed binder)
chain: B1 chain with T25E, L96C
B4: E43D (designed binder)
chain: B1 chain with T25E, E43D
B5: T2M (designed binder)
chain: B1 chain with T2M, T25E
B6: E77R (designed binder)
chain: B1 chain with T25E, E77R
B7: V71D (designed binder)
chain: B1 chain with T25E, V71D
B8: E84W (designed binder)
chain: B1 chain with T25E, E84W
B9: T2K (designed binder)
chain: B1 chain with T2K, T25E
B10: R13M (designed binder)
chain: B1 chain with R13M, T25E
B11: Q4G (designed binder)
chain: B1 chain with Q4G, T25E
B12: V71H (designed binder)
chain: B1 chain with T25E, V71H
B13: A83P (designed binder)
chain: B1 chain with T25E, A83P
B14: A102L (designed binder)
chain: B1 chain with T25E, A102L
B15: A19I (designed binder)
chain: B1 chain with A19I, T25E
B16: E36I (designed binder)
chain: B1 chain with T25E, E36I
B17: V71A (designed binder)
chain: B1 chain with T25E, V71A
B18: R8A (designed binder)
chain: B1 chain with R8A, T25E
B19: A105P (designed binder)
chain: B1 chain with T25E, A105P
B20: L6V (designed binder)
chain: B1 chain with L6V, T25E
B21: A106F (designed binder)
chain: B1 chain with T25E, A106F
B22: V60T (designed binder)
chain: B1 chain with T25E, V60T
B23: A69S (designed binder)
chain: B1 chain with T25E, A69S
B24: A87E (designed binder)
chain: B1 chain with T25E, A87E
B25: L39H (designed binder)
chain: B1 chain with T25E, L39H
B26: I45N (designed binder)
chain: B1 chain with T25E, I45N
B27: E33G (designed binder)
chain: B1 chain with T25E, E33G
B28: L24G (designed binder)
chain: B1 chain with L24G, T25E
B29: E77A (designed binder)
chain: B1 chain with T25E, E77A
B30: V55K (designed binder)
chain: B1 chain with T25E, V55K
B31: E18D (designed binder)
chain: B1 chain with E18D, T25E
B32: D59Y (designed binder)
chain: B1 chain with T25E, D59Y
B33: P79R (designed binder)
chain: B1 chain with T25E, P79R
B34: D40W (designed binder)
chain: B1 chain with T25E, D40W
B35: L7Q (designed binder)
chain: B1 chain with L7Q, T25E
B36: V85L (designed binder)
chain: B1 chain with T25E, V85L
B37: E10L (designed binder)
chain: B1 chain with E10L, T25E
B38: R8V (designed binder)
chain: B1 chain with R8V, T25E
B39: D40E (designed binder)
chain: B1 chain with T25E, D40E
B40: E29N (designed binder)
chain: B1 chain with T25E, E29N
B41: S53M (designed binder)
chain: B1 chain with T25E, S53M
B42: E99I (designed binder)
chain: B1 chain with T25E, E99I
B43: A87F (designed binder)
chain: B1 chain with T25E, A87F
B44: L96F (designed binder)
chain: B1 chain with T25E, L96F
B45: E46V (designed binder)
chain: B1 chain with T25E, E46V
B46: D56A (designed binder)
chain: B1 chain with T25E, D56A
B47: K103T (designed binder)
chain: B1 chain with T25E, K103T
B48: F31I (designed binder)
chain: B1 chain with T25E, F31I
B49: P32W (designed binder)
chain: B1 chain with T25E, P32W
B50: A98W (designed binder)
chain: B1 chain with T25E, A98W
B51: L26H (designed binder)
chain: B1 chain with T25E, L26H
B52: E73K (designed binder)
chain: B1 chain with T25E, E73K
B53: A19D (designed binder)
chain: B1 chain with A19D, T25E
B54: K66H (designed binder)
chain: B1 chain with T25E, K66H
B55: W68E (designed binder)
chain: B1 chain with T25E, W68E

Target: T1, TNFR1
Test: yeast display SC50
For B1, the “apparent Kd (screen)” value was 0.405 nM. For B2, the “apparent Kd (screen)” value was 0.539 nM. B3 was tested, and the “apparent Kd (screen)” value was 0.49 nM. B4 was tested, and the “apparent Kd (screen)” value was 0.79 nM. B5 was tested, and the “apparent Kd (screen)” value was 0.49 nM. With B6 the “apparent Kd (screen)” value was 0.49 nM. For B7, the “apparent Kd (screen)” value was 29.5 nM. In the case of B8, the “apparent Kd (screen)” value is reported as 0.593 nM. With B9 the “apparent Kd (screen)” value was 0.718 nM. With B10 the “apparent Kd (screen)” value was 0.304 nM. With B11 the “apparent Kd (screen)” value was 0.49 nM. For B12, the “apparent Kd (screen)” value was 0.539 nM. In the case of B13, the “apparent Kd (screen)” value is reported as 1.27 nM. For B14, the “apparent Kd (screen)” value was 0.79 nM. With B15 the “apparent Kd (screen)” value was 0.956 nM. B16 was tested, and the “apparent Kd (screen)” value was 2.48 nM. With B17 the “apparent Kd (screen)” value was 0.49 nM. In the case of B18, the “apparent Kd (screen)” value is reported as 0.869 nM. B19 was tested, and the “apparent Kd (screen)” value was 0.79 nM. For B20, the “apparent Kd (screen)” value was 2.48 nM. B21 was tested, and the “apparent Kd (screen)” value was 0.718 nM. In the case of B22, the “apparent Kd (screen)” value is reported as 0.539 nM. With B23 the “apparent Kd (screen)” value was 0.718 nM. In the case of B24, the “apparent Kd (screen)” value is reported as 0.446 nM. In the case of B25, the “apparent Kd (screen)” value is reported as 2.48 nM. For B26, the “apparent Kd (screen)” value was 4.83 nM. With B27 the “apparent Kd (screen)” value was 0.79 nM. With B28 the “apparent Kd (screen)” value was 1.4 nM. In the case of B29, the “apparent Kd (screen)” value is reported as 0.539 nM. For B30, the “apparent Kd (screen)” value was 16.7 nM. For B31, the “apparent Kd (screen)” value was 0.718 nM. In the case of B32, the “apparent Kd (screen)” value is reported as 3 nM. With B33 the “apparent Kd (screen)” value was 0.869 nM. For B34, the “apparent Kd (screen)” value was 0.49 nM. In the case of B35, the “apparent Kd (screen)” value is reported as 8.56 nM. B36 was tested, and the “apparent Kd (screen)” value was 2.73 nM. B37 was tested, and the “apparent Kd (screen)” value was 0.539 nM. B38 was tested, and the “apparent Kd (screen)” value was 0.539 nM. With B39 the “apparent Kd (screen)” value was 0.593 nM. For B40, the “apparent Kd (screen)” value was 0.956 nM. For B41, the “apparent Kd (screen)” value was 1.27 nM. For B42, the “apparent Kd (screen)” value was 0.49 nM. For B43, the “apparent Kd (screen)” value was 0.79 nM. In the case of B44, the “apparent Kd (screen)” value is reported as 0.539 nM. For B45, the “apparent Kd (screen)” value was 0.49 nM. B46 was tested, and the “apparent Kd (screen)” value was 2.05 nM. B47 was tested, and the “apparent Kd (screen)” value was 0.956 nM. B48 was tested, and the “apparent Kd (screen)” value was 0.956 nM. In the case of B49, the “apparent Kd (screen)” value is reported as 0.49 nM. In the case of B50, the “apparent Kd (screen)” value is reported as 0.49 nM. B51 was tested, and the “apparent Kd (screen)” value was 0.593 nM. B52 was tested, and the “apparent Kd (screen)” value was 0.539 nM. With B53 the “apparent Kd (screen)” value was 1.16 nM. In the case of B54, the “apparent Kd (screen)” value is reported as 1.05 nM. With B55 the “apparent Kd (screen)” value was 2.73 nM.
